From paper PMC5759761 (Nature, 2017)

Biological target: the molecule itself
Assay: cryo-EM structure

B1: E. coli MsbA (natural protein)
chain: MHNDKDLSTWQTFRRLWPTIAPFKAGLIVAGVALILNAASDTFMLSLLKPLLDDGFGKTDRSVLVWMPLVVIGLMILRGITSYVSSYCISWVSGKVVMTMRRRLFGHMMGMPVSFFDKQSTGTLLSRITYDSEQVASSSSGALITVVREGASIIGLFIMMFYYSWQLSIILIVLAPIVSIAIRVVSKRFRNISKNMQNTMGQVTTSAEQMLKGHKEVLIFGGQEVETKRFDKVSNRMRLQGMKMVSASSISDPIIQLIASLALAFVLYAASFPSVMDSLTAGTITVVFSSMIALMRPLKSLTNVNAQFQRGMAACQTLFTILDSEQEKDEGKRVIERATGDVEFRNVTFTYPGRDVPALRNINLKIPAGKTVALVGRSGSGKSTIASLITRFYDIDEGEILMDGHDLREYTLASLRNQVALVSQNVHLFNDTVANNIAYARTEQYSREQIEEAARMAYAMDFINKMDNGLDTVIGENGVLLSGGQRQRIAIARALLRDSPILILDEATSALDTESERAIQAALDELQKNRTSLVIAHRLSTIEKADEIVVVEDGVIVERGTHNDLLEHRGVYAQLHKMQFGQ
  stoichiometry N: 2
